Data published in patent US20260266848A1, “COMPOSITIONS AND METHODS FOR DIAGNOSING AND TREATING DYSTONIA” (Duke University, priority 2023, published 2026).

B1: Hmgcs1 (protein, UniProt Q8JZK9 1-520, looked up)
Hydroxymethylglutaryl-CoA …: MPGSLPLNAEACWPKDVGIVALEIYFPSQYVDQAELEKYDGVDAGKYTIGLGQARMGFCTDREDINSLCLTVVQKLMERHSLSYDCIGRLEVGTETIIDKSKSVKSNLMQLFEESGNTDIEGIDTTNACYGGTAAVFNAVNWVESSSWDGRYALVVAGDIAIYATGNARPTGGVGAVALLIGPNAPLIFDRGLRGTHMQHAYDFYKPDMLSEYPVVDGKLSIQCYLSALDRCYSVYRKKIRAQWQKEGKDKDFTLNDFGFMIFHSPYCKLVQKSLARMFLNDFLNDQNRDKNSIYSGLEAFGDVKLEDTYFDRDVEKAFMKASSELFNQKTKASLLVSNQNGNMYTSSVYGSLASVLAQYSPQQLAGKRVGVFSYGSGLAATLYSLKVTQDATPGSALDKITASLCDLKSRLDSRTCVAPDVFAENMKLREDTHHLANYIPQCSIDSLFEGTWYLVRVDEKHRRTYARRPFTNDHSLDEGMGLVHSNTATEHIPSPAKKVPRLPATSAESESAVISNGEH
B2: Apex1 (protein, UniProt P28352 2-317, looked up)
DNA repair nuclease/redox …: PKRGKKAAADDGEEPKSEPETKKSKGAAKKTEKEAAGEGPVLYEDPPDQKTSPSGKSATLKICSWNVDGLRAWIKKKGLDWVKEEAPDILCLQETKCSENKLPAELQELPGLTHQYWSAPSDKEGYSGVGLLSRQCPLKVSYGIGEEEHDQEGRVIVAEFESFVLVTAYVPNAGRGLVRLEYRQRWDEAFRKFLKDLASRKPLVLCGDLNVAHEEIDLRNPKGNKKNAGFTPQERQGFGELLQAVPLADSFRHLYPNTAYAYTFWTYMMNARSKNVGWRLDYFLLSHSLLPALCDSKIRSKALGSDHCPITLYLAL
B3: Hnrnpf (protein, UniProt Q9Z2X1 1-415, looked up)
Heterogeneous nuclear …: MMLGPEGGEGYVVKLRGLPWSCSIEDVQNFLSDCTIHDGVAGVHFIYTREGRQSGEAFVELESEDDVKLALKKDRESMGHRYIEVFKSHRTEMDWVLKHSGPNSADSANDGFVRLRGLPFGCTKEEIVQFFSGLEIVPNGITLPVDPEGKITGEAFVQFASQELAEKALGKHKERIGHRYIEVFKSSQEEVRSYSDPPLKFMSVQRPGPYDRPGTARRYIGIVKQAGLDRMRSGAYSAGYGGYEEYSGLSDGYGFTTDLFGRDLSYCLSGMYDHRYGDSEFTVQSTTGHCVHMRGLPYKATENDIYNFFSPLNPVRVHIEIGPDGRVTGEADVEFATHEEAVAAMSKDRANMQHRYIELFLNSTTGASNGAYSSQVMQGMGVSAAQATYSGLESQSVSGCYGAGYSGQNSMGGYD
B4: Ephx1 (protein, UniProt Q9D379 1-455, looked up)
Epoxide hydrolase 1: MWLELILASVLGFVIYWFVSRDKEETLPLEDGWWGPGSKPSAKEDESIRPFKVETSDEEIKDLHQRIDRFRASPPLEGSRFHYGFNSSYLKKVVSFWRNEFDWRKQVEILNQYPHFKTKIEGLDIHFIHVKPPQLPSGRTPKPLLMVHGWPGSFYEFYKIIPLLTDPKTHGLSDEHVFEVICPSIPGYGFSEASSKKGLNSVATARIFYKLMSRLGFQKFYIQGGDWGSLICTNIAQMVPNHVKGLHLNMSFISRNIYSLTPLLGQRFGRFLGYTEKDLELLYPFKEKVFYNIMRESGYLHIQATKPDTVGCALNDSPVGLAAYILEKFSTWTKSEYRELEDGGLERKFSLEDLLTNIMIYWTTGTIVSSQRFYKENLGQGVMVHRHEGMKVFVPTGYSAFPSEILHAPEKWVKVKYPKLISYSYMERGGHFAAFEEPKLLAQDIRKFVSLAELQ
B5: Eif2b1 (protein, UniProt Q99LC8 1-305, looked up)
Translation initiation factor …: MEDGELIEYFKSQMKGDPKMASAVAAIQTLLEFLKRDKGETLQGLRANLTYAIKTLCGVDSSVAVSSGGELFLRFISLTSLEYSDYSKCKKIMIERGELFLRRISLSRNKIANLCHTFIKDGARILTHAYSRVVLRVLEEAVAAKKRFSVYITESQPDLSGKKMAKALSHLNVPVTVVLDAAVGYIMEKADLVIVGAEGVVENGGIINKIGTNQMAVCAKAQNKPFYVVAESFKFVRLFPLNQEDVPDKFKYKADTLKSVQTGQDLKEEHPWVDYTSPSLITLLFTDLGVLTPSAVSDELIKLYL
B6: Gmpr2 (protein, UniProt Q99L27 1-348, looked up)
GMP reductase 2: MPHIDNDVKLDFKDVLLRPKRSTLKSRSEVELTRSFSFRNSKQMYSGIPVIAANMDTVGTFEMARVLCKFSLFTAIHKHYSIHQWQEFASQNPDCLECLAASSGSGSADFEQLEQILEAIPQVKYICLDVANGYSEHFVEFVKDVRKRFPQHTIMAGNVVTGEMVEELILSGADIIKVGIGPGSVCTTRKKTGVGYPQLSAVMECADAAHGLKGHIISDGGCSCPGDVAKAFGAGADFVMLGGMLAGHSESGGELIERDGKKYKLFYGMSSEMAMKKYSGGVAEYRASEGKIVEVPFKGDVEHTIRDILGGIRSTCTYVGAAKLKELSRRTTFIRVTQQVNPIFSNSQ
B7: Dars (protein, UniProt Q922B2 1-501, looked up)
Aspartate--tRNA ligase, …: MPSTNASRKGQEKPREIVDAAEDYAKERYGISSMIQSQEKPDRVLVRVKDLTVQKADDVVWVRARVHTSRAKGKQCFLVLRQQQFNVQALVAVGDHASKQMVKFAANINKESIIDVEGVVRKVNQKIGSCTQQDVELHVQKIYVISLAEPRLPLQLDDAIRPEVEGEEDGRATVNQDTRLDNRVIDLRTSTSQAIFRLQSGICHLFRETLINKGFVEIQTPKIISAASEGGANVFTVSYFKNNAYLAQSPQLYKQMCICADFEKVFCIGPVFRAEDSNTHRHLTEFVGLDIEMAFNYHYHEVVEEIADTLVQIFKGLQERFQTEIQTVSKQFPCEPFKFLEPTLRLEYCEALAMLREAGVEMDDEEDLSTPNEKLLGRLVKEKYDTDFYVLDKYPLAVRPFYTMPDPRNPKQSNSYDMFMRGEEILSGAQRIHDPQLLTERALHHGIDLEKIKAYIDSFRFGAPPHAGGGIGLERVTMLFLGLHNVRQTSMFPRDPKRLTP
B8: Lipg (protein, UniProt Q9WVG5 21-500, looked up)
Endothelial lipase: SITTLRPQGSLRDEHHKPTGVPATARPSVAFNIRTSKDPEQEGCNLSLGDSKLLENCGFNMTAKTFFIIHGWTMSGMFESWLHKLVSALQMREKDANVVVVDWLPLAHQLYTDAVNNTRVVGQRVAGMLDWLQEKEEFSLGNVHLIGYSLGAHVAGYAGNFVKGTVGRITGLDPAGPMFEGVDINRRLSPDDADFVDVLHTYTLSFGLSIGIRMPVGHIDIYPNGGDFQPGCGFNDVIGSFAYGTISEMVKCEHERAVHLFVDSLVNQDKPSFAFQCTDSSRFKRGICLSCRKNRCNNIGYNAKKMRKKRNSKMYLKTRAGMPFKVYHYQLKVHMFSYNNSGDTQPTLYITLYGSNADSQNLPLEIVEKIELNATNTFLVYTEEDLGDLLKMRLTWEGVAHSWYNLWNEFRNYLSQPSNPSRELYIRRIRVKSGETQRKVTFCTQDPTKSSISPGQELWFHKCQDGWKMKNKTSPFVNLA
B9: Shmt2 (protein, UniProt Q9CZN7 30-504, looked up)
Serine …: KVAQTQAGEAAGGWTGQESLSDSDPEMWELLQREKDRQCRGLELIASENFCSRAALEALGSCLNNKYSEGYPGKRYYGGAEVVDEIELLCQRRALEAFDLDPAQWGVNVQPYSGSPANLAAYTALLQPHDRIMGLDLPDGGHLTHGYMSDVKRISATSIFFESMPYKLNPQTGLIDYDQLALTARLFRPRLIIAGTSAYARLIDYARMREVCDEVRAHLLADMAHISGLVAAKVIPSPFKYADVVTTTTHKTLRGARSGLIFYRKGVRTVDPKTGKEIPYTFEDRINFAVFPSLQGGPHNHAIAAVAVALKQACTPMFREYSLQVLRNAQAMADALLKRGYSLVSGGTDTHLVLVDLRPKGLDGARAERVLELVSITANKNTCPGDRSAITPGGLRLGAPALTSRQFREDDFRRVVDFIDEGVNIGLEVKRKTAKLQDFKSFLLKDPETSQRLANLRQQVEQFARGFPMPGFDER

Legend:
DYT-TOR1A MEF EVs = assay: Quantitative LC-MS/MS proteomics of EVs from drug-treated DYT-TOR1A MEF cultures (ritonavir, salubrinal); assay type: cell-based, mouse; set-up: key to RTV Corrective Direction / RTV Corrective Direction, Grwd1 / RTV Corrective Direction, Srrm2 / RTV Corrective Direction, Rbm17 / RTV Corrective Direction, Dcaf8 / RTV Corrective Direction, Edil3 / RTV Corrective Direction, Timp3 / RTV Corrective Direction, Heatr3 / RTV Corrective Direction, Brd4 / RTV Corrective Direction, P3h4 / RTV Corrective Direction, Pacsin3 / RTV Corrective Direction, Naa50 / RTV Corrective Direction, Lpar6 / RTV Corrective Direction, Ndrg1 / RTV Corrective Direction, Kntc1 / RTV Corrective Direction, Cdk11b / RTV Corrective Direction, Sumo1 / RTV Corrective Direction, Lsm4 / RTV Corrective Direction, Hmga2 / RTV Corrective Direction, Cstf1 / RTV Corrective Direction, Tes / RTV Corrective Direction, Sbno1 / RTV Corrective Direction, Unc119b / RTV Corrective Direction, Cfdp1 / RTV Corrective Direction, Sec61b: YES = protein abundance effect opposite to DYT/WT; details: EV protein abundance; for RTV Corrective Direction: DYT + RTV (ritonavir) vs DYT, direction compared with DYT/WT; for DYT + RTV/DYT Cohen's d: ritonavir (RTV)-treated DYT vs DYT
WT MEF EVs = assay: Quantitative LC-MS/MS proteomics of EVs from ISRIB-treated WT MEF cultures; assay type: cell-based, mouse; set-up: key to ISRIB and DYT Parallel Direction / ISRIB and DYT Parallel Direction, Ctdsp1 / ISRIB and DYT Parallel Direction, Pcdh19 / ISRIB and DYT Parallel Direction, Tspan7 / ISRIB and DYT Parallel Direction, Myo1e / ISRIB and DYT Parallel Direction, Plpp3 / ISRIB and DYT Parallel Direction, Sh3bp4 / ISRIB and DYT Parallel Direction, Dnajc7 / ISRIB and DYT Parallel Direction, Drg1 / ISRIB and DYT Parallel Direction, Maea: YES = protein abundance effect similar to DYT/WT; details: EV protein abundance; for WT + ISRIB/WT Cohen's d: ISRIB-treated WT vs WT; for ISRIB and DYT Parallel Direction: WT + ISRIB vs WT, direction compared with DYT/WT

| Molecule | RTV Corrective Direction (DYT-TOR1A MEF EVs) | DYT + RTV/DYT Cohen's d (DYT-TOR1A MEF EVs) | WT + ISRIB/WT Cohen's d (WT MEF EVs) | ISRIB and DYT Parallel Direction (WT MEF EVs) |
| --- | --- | --- | --- | --- |
| B1 | YES | 7.26 | −0.06 | YES |
| B2 | YES | 8.06 | −0.67 | YES |
| B3 | YES | 8.04 | −0.18 | YES |
| B4 | YES | 1.48 | −0.32 | YES |
| B5 | YES | 5.03 | −0.70 | YES |
| B6 | YES | 5.10 | −2.98 | YES |
| B7 | YES | 9.32 | −1.13 | YES |
| B8 | YES | 2.88 | −2.47 | YES |
| B9 | YES | 8.98 | −1.44 | YES |
